The source of these data is patent US12291578B2, “Anti-matrix metalloproteinase 7 (MMP-7) inhibitory antibody and uses thereof” (Yeda Research and Development Co. Ltd., priority 2019, dated 2025).

Data set [1] relates to AsPC-1 cells. Kind of data set: Gemcitabine co-treatment, MTT cell death assay. Type of data set: cell-based. Particulars: Homo sapiens, ASPC1, 72 h. The protocol: Gemcitabine co-treatment: 10,000 AsPC-1 cells/well were seeded into 96 well flat bottom plate and incubated overnight at in a humidified incubator at 37° C. with 5% CO2. Media in wells were replaced by serum free RPMI medium containing 2.33 μM GSM-192 or PBS and 0.05, 0.1, 0.5, 1, 5, 10, 40 and 80-μM gemcitabine. The plates were further incubated for 72 hours in a humidified incubator at 37° C. with 5% CO2. MTT solutions (M5655 SIGMA) was added at 10% of total culture volume (0.5 mg/ml MTT in RPMI/IMDM without phenol red) and after 3 hours incubation, plate was washed with PBS and solubilized using MTT solvent (0.1 N HCl in anhydrous isopropanol). The read out was obtained at […]. Cell death data was plotted as a function of the log of Gemcitabine concentration and fitted on a variable slope sigmoidal regression model (GraphPad prism 8.3.0). Further, an average of IC50 from 3 experimental repeats and corresponding standard deviation was calculated.

The next data set concerns FasL in AsPC-1 cells. Kind of data set: Western blot of FasL expression in cell lysates. Type of data set: cell-based, human. Particulars: AsPC-1 cell lysates, 24 hours, sub lethal concentrations. The protocol:
Western Blots: Treated cells were lysed with RIPA buffer containing protease inhibitors and shaken intermittently while stored in ice for 30 min. The debris was removed by centrifugation at 14,000×g and supernatant was used for BCA protein determination assay. Alternatively, culture supernatants were concentrated at least 10 times using 0.2 μm centricons. Once normalized to equal protein content, sample buffer was added and heated for 3 minutes at 95° C. The denatured samples were centrifuged for 5 min at 14,000×g before 25 μL was loaded onto SDS page gel and standard blotting procedures were followed (General Protocol for Western Blotting, BioRad bulletin 6376). Primary Abs used were MMP-7 (abcam, ab5706), Fas-L (abcam, ab15285), α Tubulin Ab (sc31779).
Anti LOXL-2 (Lysyl Oxidase like 2) mAb33, produced in a similar pipeline was used as an isotype control. […] To test for molecular markers of apoptosis, Fas ligand expression was analysed by Western blot analysis. AsPC-1 cells were treated with GSM-192 Fab for 24 hours at sub lethal concentrations.

Data set [2] concerns AsPC-1 cells. Kind of data set: FACS Annexin-V apoptosis detection assay. Type of data set: cell-based, human. Particulars: AsPC-1, 24 h, increasing dose. The protocol:
FACS Annexin-V apoptosis detection assay: 70% confluent cells in 6 cm plates were treated with sterile GSM-192 Fab fragment/control anti LOXL-2 Fab fragment for 24 h and prepared for FACS using the Annexin-V FITC apoptosis detection kit (E Biosciences 88-8005-72) as described previously^53. The FACS acquisition was done using FACS LSR-II machine in Cell Quant software (Becton Dickinson) and further analysis on FlowJo software (Treestar, Inc., San Carlos, Calif.).

For the next data set, the target named is MMP-9 (Homo sapiens, UniProt P14780). Kind of data set: Enzymatic activity of related MMPs (fluorogenic peptide). Type of data set: biochemical. Particulars: in vitro. The protocol: (§1) MMP-7 enzymatic kinetic assay: The enzymatic activity of MMP-7 in the presence of GSM-192 Fab was measured at 37° C. by monitoring the hydrolysis of fluorogenic peptide Mca-Pro-Leu-Gly-Leu-Dpa-Ala-Arg-NH2 (SEQ ID NO: 10) at λex=340 nm and […] as described previously^30. A range of different concentrations of GSM-192 Fab (0-200 nM) were incubated with 10 nM of MMP-7 in 50 mM Tris-HCl buffer (pH 7.5 at 37° C.), 100 mM NaCl, 5 mM CaCl2, and 0.05% Brij-35 for 2 h at 37° C. The enzymatic reaction was initiated by addition of the fluorogenic peptide to a final concentration of 10 μM. Fluorescence was recorded immediately and continuously for 30 min.
Sequence of MMP-9 (P14780 94-707, species assumed): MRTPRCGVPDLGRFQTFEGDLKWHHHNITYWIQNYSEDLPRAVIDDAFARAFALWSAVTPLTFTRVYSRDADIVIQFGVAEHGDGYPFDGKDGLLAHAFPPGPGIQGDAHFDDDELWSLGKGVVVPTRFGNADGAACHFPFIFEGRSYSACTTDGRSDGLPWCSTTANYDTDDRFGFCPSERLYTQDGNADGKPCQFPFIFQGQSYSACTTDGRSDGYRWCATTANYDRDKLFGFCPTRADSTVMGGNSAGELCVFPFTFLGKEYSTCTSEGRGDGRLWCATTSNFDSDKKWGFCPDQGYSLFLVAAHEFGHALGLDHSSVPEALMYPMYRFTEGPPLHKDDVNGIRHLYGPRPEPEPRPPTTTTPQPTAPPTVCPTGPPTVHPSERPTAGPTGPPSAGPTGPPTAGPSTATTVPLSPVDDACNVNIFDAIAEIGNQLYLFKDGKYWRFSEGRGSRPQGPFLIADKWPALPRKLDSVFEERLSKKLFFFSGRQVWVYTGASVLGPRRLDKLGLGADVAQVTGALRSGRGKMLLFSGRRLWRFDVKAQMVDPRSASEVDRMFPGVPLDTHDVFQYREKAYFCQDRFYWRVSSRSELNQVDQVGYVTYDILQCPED
(§2) Remarkably, considering that the immunization booster also included the common zinc motif, the antibody is fully selective for MMP-7. The effect of GSM-192 Fab fragment on the enzymatic activity of human MMP-7 was examined in vitro using a short fluorogenic peptide according to a standard protocol. The enzymatic activity of recombinant active MMP-7 was measured in the presence of increasing concentrations of the Fab fragment of GSM-192. […] Simultaneously the effect of the antibody on catalytic activity of related MMPs was measured.

The target in the next data set is MMP-14 (Homo sapiens, UniProt P50281). The data set is described as above. The format is biochemical. Particulars: in vitro. The protocol:
as §1, §2

A further data set deals with MMP-12 (Homo sapiens, UniProt P39900). Described as above. Particulars: in vitro. Type of data set: biochemical. The protocol:
as §1, §2

Entries after “also recorded” stand apart in the source; their conditions may differ. Where two headings read alike, the source gives them in different places.

Sequence of MMP-12 (P39900 106-470): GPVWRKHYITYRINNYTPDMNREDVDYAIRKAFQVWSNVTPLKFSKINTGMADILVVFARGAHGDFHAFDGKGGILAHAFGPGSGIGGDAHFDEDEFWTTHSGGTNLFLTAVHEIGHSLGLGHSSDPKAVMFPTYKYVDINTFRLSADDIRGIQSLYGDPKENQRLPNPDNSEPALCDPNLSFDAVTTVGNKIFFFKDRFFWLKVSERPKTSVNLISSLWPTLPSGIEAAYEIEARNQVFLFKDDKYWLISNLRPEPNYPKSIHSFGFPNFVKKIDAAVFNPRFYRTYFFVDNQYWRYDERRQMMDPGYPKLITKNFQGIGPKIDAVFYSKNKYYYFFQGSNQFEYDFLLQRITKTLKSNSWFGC

In the case of `Nc1ccn([C@@H]2O[C@H](CO)[C@@H](O)C2(F)F)c(=O)n1` [GEM, gemcitabine], the IC50 in the data set on AsPC-1 cells [1] (GEM+PBS group, 72 hours) came to 127 ± 40.5 nM; with AsPC-1 cells [1] (co-treatment with 2.33 uM GSM-192, 72 hours, read-out: IC50 of GEM) it was 14.2 ± 1.52 nM.

B1: GSM-192 Fab: Fab fragment of GSM-192 obtained by papain digestion (antibody, V domains shown)
VL: DIVTQSPASLAVSLGQRATISCRASESFDSYGNTFVHWYQQKPGQPPKLLIYLVSNLESGVPAGFRGRGSRTDFTLTIDPVEADDAATYYCQQNNEDPYTFGGGTKLEIKRA
VH: EVQLQQSGPELVKPGASVKIPCKASGYTFTDYNMDWMKQSHGKSLEWIGHINPNNGGTFYNQKFKDKATFIVDKSSNTAYMELRSLTSEDTAVYFCARGGGLRRGPFAYWGQGTLVTVS
Regarding B1, the FasL expression result with FasL in AsPC-1 cells is “increase of Fas ligand (FasL) expression”; in the data set with FasL in AsPC-1 cells (listed as anti MMP-7 Fab) it was “overall increase in FasL levels”. Besides, in the data set on AsPC-1 cells [2], the “Annexin V related apoptosis” value is recorded as “induce cell death via apoptosis; also recorded: increased Annexin V related apoptosis”. Besides, the “effect on catalytic activity of MMP-9” value in the data set with MMP-9 is on record as “not affected”. Besides, the “effect on catalytic activity of MMP-14” value with MMP-14 is given as “only negligibly affected”. The “effect on catalytic activity of MMP-12” value with MMP-12 is “not affected”.
